Source: article PMC12134178

Molecular target: mCerulean3-BaxΔCTS
Test: FRET or BRET; quantitative fast FLIM-FRET (qF3) in live HCT116 DKO cells stably expressing the donor ^CBaxΔCTS (1 to 3 µM) and transiently the Venus acceptor (0 to 50 µM); 10 µM Q-VD-OPH; fit to a Hill equation with h = 1; apparent Kd

Substance	Kd
Venus-tBid(Nes2-BH3 C-ter) chimera (from UniProt P70444 1-81; P70444 101-195)	17 µM
Venus-tBid (domain or fragment)	16.3 µM
